According to patent publication US20180072804A1 (Hoffmann-La Roche, published 2018):
Several values for one entry are separate records, joined by “and”; a condition that tells them apart may be missing. Identical values can stand only once. Like-named read-outs stand apart in the source and are kept apart here.

What was measured:
[1] = biological target: T1, Fc-tagged human Tim3-ECD dimer (human, UniProt Q8TDQ0 22-202); test: SPR, Ab captured on anti-mouse IgG, dimeric Tim3-ECD-Fc
T1 construct: also called huTim3Fc; huFc fused dimeric human Tim3-ECD
Protocol: (§1) Therefore, an anti-mouse IgG was immobilized by amine coupling to the surface of a (BIAcore) CMS sensor chip. […] The sensor chip surface was regenerated after each analysis cycle. The equilibrium constant KD was finally gained by fitting the data to a 1:1 Langmuir interaction model.
(§2) The samples were injected for 30 seconds with a concentration of 200 μg/ml and bound to the spots 1 and 5 of each flow cell, allowing the measurement of eight samples in parallel. […] The flow rate was set to 30 μl/min for the whole run.
(§3) Finally the double referenced data was fitted to a 1:1 Langmuir interaction model with the BIAcore B4000 Evaluation Software.

[2] = biological target: T2, cynomolgus TIM-3 on isolated cyno CD14+ monocytes (cynomolgus monkey, UniProt A0A2K5U3G7 22-294); test: FACS, cyno CD14+ monocytes, cyno1 (16719M)
T2 construct: whole, on cells; also called cyno monocytes expressing TIM-3
T2 sequence: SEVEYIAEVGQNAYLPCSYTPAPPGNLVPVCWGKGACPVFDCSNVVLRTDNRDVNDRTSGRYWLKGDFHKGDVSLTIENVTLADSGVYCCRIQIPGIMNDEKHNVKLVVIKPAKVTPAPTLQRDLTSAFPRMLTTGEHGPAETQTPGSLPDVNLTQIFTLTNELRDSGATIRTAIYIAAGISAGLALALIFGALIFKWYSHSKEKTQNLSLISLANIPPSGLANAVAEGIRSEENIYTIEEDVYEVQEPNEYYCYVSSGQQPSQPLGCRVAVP
Description: (§4) CD14+ Monocytes were isolated from cynomolgus monkey anticoagulated peripheral blood (Covance) by density gradient centrifugation using Ficoll-Paque (GE Healthcare) (see General Protocols in the User Manuals or visit www.miltenyibiotec.com/protocols) and subsequent positive selection via NHP CD14 MicroBeads. First the CD14+ cells are magnetically labeled with CD14 MicroBeads. Then the cell suspension is loaded onto a MACS® Column which is placed in the magnetic field of a MACS Separator. The magnetically labeled CD14+ cells are retained in the column. The unlabeled cells run through, this cell fraction is depleted of CD14+ cells. After removal of the column from the magnetic field, the magnetically retained CD14+ cells can be eluted as the positively selected cell fraction. After centrifugation at 200×g for 10 min at room temperature the monocytes were harvested and used directly in binding assay or resuspended in freezing medium (10% DMSO, 90% FCS) at 1.0E+07 cells/ml and stored in liquid nitrogen.
(§5) After washing and centrifugation MFI signals of stained cells were analyzed by BD Biosciences FACSCanto flow cytometer.

[3] = biological target: T3, human TIM3, full length, on cells (human, UniProt Q8TDQ0 22-301); test: FACS, human CD14+ monocytes, donor1, 10 µg/ml
T3 construct: CHO-K1 cells were transfected with a plasmid for full-length human Tim3; other cells carry endogenous TIM3; also called huTIM-3; CHO-Tim3
Description: (§6) CD14+ Monocytes were isolated from anticoagulated peripheral blood of healthy donors by density gradient centrifugation using Ficoll-Paque (GE Healthcare) (see General Protocols in the User Manuals or visit www.miltenyibiotec.com/protocols) and subsequent positive selection via CD14 MicroBeads. First the CD14+ cells are magnetically labeled with CD14 MicroBeads. Then the cell suspension is loaded onto a MACS® Column which is placed in the magnetic field of a MACS Separator. The magnetically labeled CD14+ cells are retained in the column. The unlabeled cells run through, this cell fraction is depleted of CD14+ cells. After removal of the column from the magnetic field, the magnetically retained CD14+ cells can be eluted as the positively selected cell fraction. After centrifugation at 200×g for 10 min at room temperature the monocytes were harvested and used directly in binding assay or resuspended in freezing medium (10% DMSO, 90% FCS) at 1.0E+07 cells/ml and stored in liquid nitrogen.
as §5

[4] = biological target: monomeric cyno Tim3-ECD (cynomolgus); test: ELISA on cynomolgus Tim3
[5] = biological target: T3, human TIM3, full length, on cells; test: FACS, human CD14+ monocytes, donor3, 10 µg/ml
Description: as §6, §5

[6] = biological target: T3, human TIM3, full length, on cells; test: cell ELISA, CHO-K1 with full-length human Tim3
Protocol: Then the reaction was stopped by addition of 25 μl/well 1N HCL-solution.

[7] = biological target: T3, human TIM3, full length, on cells; test: FACS, human CD14+ monocytes, donor2, 10 µg/ml
Description: as §6, §5

[8] = biological target: T1, Fc-tagged human Tim3-ECD dimer; test: SPR, Ab captured on anti-mouse IgG, 25 C
Protocol: as §1, §2, §3

monomeric human Tim3-ECD [9] = biological target: T4, monomeric human Tim3-ECD (human, UniProt Q8TDQ0 22-202); test: SPR, Ab captured on anti-mouse IgG, 25 C
T4 construct: also called huTim3; hu Tim3-ECD
Protocol: as §1, §2, §3

[10] = biological target: T3, human TIM3, full length, on cells; test: cell-based or functional assay
monomeric human Tim3-ECD [11] = biological target: T4, monomeric human Tim3-ECD; test: SPR, Ab captured on anti-mouse IgG, monomeric Tim3-ECD; monomer Tim3, not the Fc-tagged dimer
[12] = biological target: T3, human TIM3, full length, on cells; test: cell ELISA, CHO-K1 with full-length human Tim3; remark: listed apart in the source
Tim3-ECD-His-Biotin [13] = biological target: T5, Tim3-ECD-His-Biotin (human, UniProt Q8TDQ0 22-202, biotinylated with BirA Ligase); test: ELISA on human Tim3
T5 construct: Coated on streptavidin plates; also called human Tim3 (ELISA); Biochem Human

Tim3-ECD-His-Biotin [14] = biological target: T5, Tim3-ECD-His-Biotin; test: ELISA on Tim3-ECD-His-Biotin
Protocol: After washing (3×90 μl/well with PBST-buffer) 25 μl/well sheep-anti-mouse-POD (GE NA9310V) was added in 1:9000 dilution and incubated at RT for 1 h while shaking at 400 rpm rotation. After washing (4×90 μl/well with PBST-buffer) 25 TMB substrate (Calbiochem, #CL07) was added and incubated until OD 1.5-2.5. Then the reaction was stopped by addition of 25 μl/well 1N HCL-solution.

[15] = biological target: T2, cynomolgus TIM-3 on isolated cyno CD14+ …; test: FACS, cyno CD14+ monocytes, cyno2 (17435M)
Description: as §4, §5

[16] = biological target: T2, cynomolgus TIM-3 on isolated cyno CD14+ …; test: FACS, cyno CD14+ monocytes, cyno3 (30085F)
Description: as §4, §5

[17] = biological target: monomeric cyno Tim3-ECD (cynomolgus); test: SPR, Ab captured on anti-mouse IgG, 25 C

B1: anti-TIM3 antibody Tim3_0016 variant (Tim3_0018) (antibody, V domains shown)
VH: QVTLKESGPGILQPSQTLSLTCSFSGFSLSTSGMSVGWIRQPSGKGLEWLAHIWLNDDVFFNPALKRRLTISKDTSNNQVFLQIASVVTADTATYYCVRANGYLYALDYWGQGISVTVSS
VL: QIVLTQSPAIMSASPGQKVTITCSASSSVNYTQWYQQKLGSSPKLWIYDAFKLAPGVPARFSGSGTGTSYSLTISSMEAEDAASYFCHQWSSYPWTFGGGTKLEIK
notes: Mouse monoclonal from hybridoma; also called TIM3-0016 variant (0018); Tim3_0016 variant 0018-A488
- Kd [1]: 1.1 nM
- Specific Binding [MFI] [2]: 301 MFI
- Specific Binding [MFI] [3]: 2330 MFI
- EC50 [4]: 0.0146 mg/L
- Inflexion point [4]: 14.6 ng/mL
- Specific Binding [MFI] [5]: 1940 MFI
- EC50 [6]: 0.52 nM and 0.087 µg/mL
- Specific Binding [MFI] [7]: 1820 MFI
- Kd [8]: 1.11 nM
- Kd (monomeric human Tim3-ECD [9]): 3.4 nM
- IFNgamma release in MLR, % of rec hu IL-2 control, 1 µg/ml [10]: 12%
- IFNgamma release in MLR, % of rec hu IL-2 control, 10 µg/ml [10]: 30%
- IFNgamma release in MLR, % of rec hu IL-2 control, 40 µg/ml [10]: 36%
- Kd (monomeric human Tim3-ECD [11]): 3.4 nM
- EC50 [12]: 0.0264 mg/L
- Inflexion point [12]: 29.4 ng/mL
- EC50 (Tim3-ECD-His-Biotin [13]): 0.0151 mg/L
- Inflexion point (Tim3-ECD-His-Biotin [13]): 15.3 ng/mL
- EC50 (Tim3-ECD-His-Biotin [14]): 0.56 nM and 0.094 µg/mL
- Specific Binding [MFI] [15]: 480 MFI
- Specific Binding [MFI] [16]: 417 MFI
- Kd [17]: 41.9 nM
